Substrate: O=P(O)(O)O[C@H]1O[C@H](CO)[C@@H](O)[C@H](O)[C@H]1O
Experiment: initial rates from phosphate release, Michaelis-Menten fit
Assay type: biochemical, [Clostridium] cellulosi
Details: 100 mM cellobiose (saturating), 50 mM MES pH 7.0, 45 °C, synthesis direction

B1: CcCdP (cellodextrin phosphorylase from Clostridium cellulosi) ([Clostridium] cellulosi) (protein)
chain: MITKVTPRSCKLTPFEILKQKFGSIIAMSGCADAIYSDSSCKNVIGITGLPIKAPVIQVLLENSKLAAFLNEYVQNKSVCLALEGMRYCLVFEDGQKVKLPQELDDIIQSTVSDVKNWAGTLTENGEHVIDLKKPSPGPHFYVNLLIGNRLGFNRTLQTTPKSVVDRFGRGSFRSHAATQVLATRYDMRQEENGFPANRQFYLYENGKQIFYSGSVDDDNILEAKCIHSCNRTVIKYKTACKLEITRTIFLCPQKKGLPLATEIQIINIKNNSERKRNLSITYTGMFGTAATHAIFEDVTYTNVIMQSAALYNDNGEFIGITPDYYRKKYNEDTRFVTMFVRKDGKRIFPKSFCTDYNDFVGNGTLEHPAGGEHLNNKLNRKGPGFFALGTPFTIMPGQDIEIDTFTGMSSSKDNPNYDDTTMPKELEALLRYFEASDSVQSALREVIDFQEKYCKYIEFKTEDKMFNAGFNKNLAFQILYQTFMSRSFCQTQKGYREIGFREIQDLYASMYYFINLGYQDFVKNLLFEWTSNVYKMGYANHNFYWVGKQPGLYSDDSLWLLQAYYRYIIYTKDTSILNEEVPVADGNNEKRAVRDTLKAIIQYSAFISVGNHGLPLLDLADWNDCLKIDNDYVDGAQKEKLYYKQLKETGGKYGDRFMSDYSESVMNAFLLKVAVDDLAEIAELDKDAELEQSMRKISSALSEKIQKYAWKGNFFARVLLNRYKDGSFTYIGAKGDKLSADPNIDGTYFLNSFSWAILSGVATDEQIGIMVDTLKKYMLTPYGIRLTTPADLNKLANDTATDHYFYGDRENGAVFKHASMMATAALAKAAKSVKDKALAKEMARLAYYMIDLVLPYKNLEDPFKLAGNPRICTQYINADSGENIGPLLSGTATWLNLTITSLAGIEYVKDGIMFSPVLREDETRLEYSLKAPGCSYNITITKPRGFARLIDSAYDLRIDGKKTDNCIIPMFTDGKEHSVTLEFK
notes: N-terminally His-tagged, recombinant, purified
Km: 470 ± 240 µM

— article PMC8194188, “Kinetic modeling of phosphorylase-catalyzed iterative β-1,4-glycosylation for degree of polymerization-controlled synthesis of soluble cello-oligosaccharides” (Biotechnology for Biofuels, 2021)
